The source of these data is publication PMC3267040, “Structure of a Blinkin-BUBR1 Complex Reveals an Interaction Crucial for Kinetochore-Mitotic Checkpoint Regulation via an Unanticipated Binding Site” (Structure(London, England:1993), 2011).

Series [1] concerns the target T1, BUBR1_(57-220), recombinant protein (human, UniProt O60566 57-220).
T1 construct: BUBR1, human, residues 57-220 (TPR-containing domain); 15N,13C-labelled for NMR; also called native BUBR1; free BUBR1
The series can be described thus: ITC; BUBR1_(57-220) at 27 μM titrated against 200 μM of Blinkin peptide S208-K226. To be noted: both partners purified. (In general: In ITC the heat of successive injections is recorded.)

In series [2] the target is T1, BUBR1_(57-220), recombinant protein. Kind of series: fluorescence-based thermal shift assay; Tm of BUBR1_(57-220) without and with Blinkin S208-K226 peptide. Conditions: both partners purified.

T1 sequence (O60566 57-220): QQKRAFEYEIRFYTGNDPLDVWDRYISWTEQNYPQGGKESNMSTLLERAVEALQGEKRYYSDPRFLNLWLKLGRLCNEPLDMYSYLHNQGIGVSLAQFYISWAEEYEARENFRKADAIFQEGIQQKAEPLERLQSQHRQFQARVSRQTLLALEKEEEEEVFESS

B1: Blinkin S208-K226 peptide (peptide, UniProt Q8NG31-2 208-226, looked up)
peptide: SSENKIDFNDFIKRLKTGK
notes: Blinkin (KNL1, CASC5), human, NCBI NP_653091.2, residues S208-K226; peptide synthesis is in the supplement; also called Blinkin peptide; source: synthetic peptide
In general, Kd refers to the free concentration of one partner at which half of the binding sites on the other are occupied at equilibrium, for simple one-to-one binding. What is called stoichiometry N is a count of units in the complex or per binding partner. With B1, in series [1], the Kd came to 9.3 ± 0.4 µM, the dH was -2.7 kcal/mol and the “stoichiometry N” value is 1. In addition, in series [2], the “increase of the Tm of BUBR1_(57-220) on addition of the peptide” value is approximately 2 °C.
